Earlier results, collected in US9994615B2, “Self-regulated peptide hydrogel for insulin delivery” (Massachusetts Institute of Technology, priority 2012, dated 2018).

Legend:
[1] = after subcutaneous injection

pKa | Compound | Time basal level of insulin is maintained [1]
approximately 8.9 | OB(O)c1ccccc1 [phenylboronic acid] | –
– | insulin detemir | up to 20 hours
– | glargine | up to 24 hours
